{
  "source": "a protein production outcome set (Wang et al. 2014)",
  "data": [
    {"experiment": "label from the status in PepcDB records", "values": [
      {"sequence": "MPEAPGDTPLALDLLRRLRRALGAAGLPELEAWDLLAAATGWPRKALYGRLTSPLPQEALDRAEALLKRRLQGYPLQYLVGEVEFFGLPLRVEEGVLIPRPETEGLVELALGLPLPPAPRILDVGTGTGAIALALKRALPEAEVYATEVDPKALALARENAERLGLAVVFLPAPLTGGLKDLDLVVSNPPYLPEAYREKAPRELGYESPLALYAGPEGLSVARPLAEEARRSLKPGGYLLLELAPENVHLLARELREKGWKEVAVLPDLAGRDRYLRARRPPEEAEGEEGRLHRPHLPQSLHPHPDHPGPPPEEEEALGQVRLRGEAGVLRGHALLQKALPDPFPHLQEDGPGPGLPRVEEGGAGENLPRGPQALFRVKAGPDEEDAVLVPRPLQDGKPRALGPAEKPHALEAQEEGPPPGRLFQRHGALLRAQAHLPQVEPLAQAGEAFCELALLPLQHPGLDEEALDPPLLLGELLAHPGQGLPEPGGLLLQNLPGAP", "protein production": "failed"},
      {"sequence": "MPEEALKTYEELLELEKRIGNKREIGLTLANLAIIKDELGNVEEAIKLMEEARKIFEELKDENNYLISLIDLAHFKYELGEYEEAMKLIREVLRNPVDKEIEVNARLVESEIYAGERKYKEAAISLRNALQRSEDDEELFSLVFDSLTEFLEGLFNESRLEHHHHHH", "protein production": "not failed"},
      {"sequence": "MPELKVVVSIKQVPDVDELRIDPVTNNLVREGVPAVINPPDLHAIEEAVRLKERYGAKTIVITMGPPQADSALREALAMGIDEAYLISDRAMAGADTWATSYTISKAVQKLGGADLILFGRRAVDGETEQVGPQTGKWLGLPVIGYVSEIKSLEKDKIVVTRTTEFDEEVIEAPVPVVLTILEVANKPRQPDILSLIKAKTAKVTVWNKDDIKAEPNKIGLAGSPTKVIKVQPPPKTRKAEIIDGKKDVEKAAKWFLDKIFESLKE", "protein production": "failed"},
      {"sequence": "MPELPWVEKYRPKKLSEIVNQEEAIEKVRAWIESWLHGHPPKKKALLLAGPPGSGKTTTVYALANEYNFEVIELNASDERTYEKISRYVQAAYTMDILGKRRKIIFLDEADNIEPSGAKEIAKLIDKAKNPIIMAANKYWEVPKEIREKAELVEYKRLTQRDVMNALIRILKREGITVPKEILLEIAKRSSGDLRAAINDLQTVVVGGYEDATQVLAYRDVEKTVFQALGLVFGSDNAKRAKMAMWNLDMSPDEFLLWVDENIPHLYLNPEEIAQAYDAISRADIYLGRAARTGNYSLWKYAIDMMTAGVAVAGRKRRGFVKFYPPNTLKILAESKEEREIRESIIKKIIREMHMSRLQAIETMKIIREIFENNLDLAAHFTVFLGLSEKEVEFLAGKEKAGTIWGKALALRRKLKELGIREEEKPKVEIEEEEEEEEKTEEEKEEIEEKPEEEKEEEKKEKEKPKKGKQATLFDFLKK", "protein production": "failed"},
      {"sequence": "MPEQQLADLSQEVAASGDSIAFAADFAVIVVVATVIGLLARQLGQPTIVAYILTGVVLGPVALDVVTQEGLVDVMAELGLGFLLFLLGLKMRFDDIREILAPITNVAIGQTVLQTALAFLVALLLGFATDEILVIALATVFGATPVIVKVLTDKDEITTLPGKIDVGVLIVQDIYLVVVLALFGAEQLGDAGEIATTLGVIFVMMSFIGLFSLASSRYLLPHLFERIANNKDVFLIVAIAWAFLFIAIAEGFDLSVEVGAFLAGLSLAQLPYSKELQDRITPITDFFILVFFASIGLQIESVGSLLTHWQEALIASVVLMVGNFWIMFYLIDREGFGPETSFLGSINMVQVSEFSLVVGALAFQQGYIGADVLGYLTLMALLTMTASTYIILYNHAIYERVAPWIRRISSGDGIDEGLPEYENHAVAIGYDEVTEKALPVLDEAFEEVVIIDRNTEHIAEIREAGEYESIFGDFRHKEVRKASNLKEAEFVLSSSVQREINEALLQETADDTPVFVEAERIADAHRLYEAGASYVVMPPHLAAEKLGEYLELYLTDQSVFHTRIQDDIEQIRRRASQATTRRRMASDTGVDLRTSGGDDD", "protein production": "failed"},
      {"sequence": "MPERRTVALVTLGCARNEVDSEELAGRLEADGWQLVEDAEDADVAVVNTCGFVEAAKKDSVDALLEANDLKGHGRTQAVVAVGCMAERYGKELAEALPEADGVLGFDDYTNISDRLQTILNGGIHAAHTPRDRRKLLPISPAERQSAGADVALPGHGAPEGLPEDLPEGLAPESGPRAPLRRRLDGSPVASVKLASGCDRRCSFCAIPSFRGSFISRRPSDVLGETRWLAEQGVKEVMLVSENNTSYGKDLGDIRLLETLLPELAEVDGIERVRVSYLQPAEMRPGLIDVLTSTPKIAPYFDLSFQHSAPDVLRAMRRFGDTDRFLELLDTIRSKAPQAGVRSNFIVGFPGETEADLAELERFLTGARLDAIGVFGYSDEEGTEAATYGHKLDEDVVAARLARVSRLAEELVAQRAEERVGETVHVLVESIDDEEGAVGRAEHQAPETDGQVLFTSGEGLTVGRMVEAKVVGTEGVDLVAEPLPGSLVCTEEAGR", "protein production": "failed"},
      {"sequence": "MPETMHDNALTQSCTLVTSPELGTMHAMPTYIATKNGEPTAIAIESIAPDGYNGEIKVITGIDNQGKILGTRVLSHQETPGLGDKIDLRVTSWILGFTGKQVTEDNWNSWKVRKDGGDFDQFTGATITPRAVIKAVRNTVNYVNQSRDEILSQPLEHHHHHH", "protein production": "not failed"},
      {"sequence": "MPEVRAERYIPAPPERVYRLAKDLEGLKPYLKEVESLEVVAREGARTRSRWVAVAMGKKVRWLEEEEWDDENLRNRFFSPEGDFDRYEGTWVFLPEGEGTRVVLTLTYELTIPIFGGLLRKLVQKLMQENVESLLKGLEERVLAASS", "protein production": "not failed"},
      {"sequence": "MPFEIGTMPIMSIDPKLLEVLACPQDKGPLKYLEAEQVLVNERLEIAYRIDDGIPVMLVDESIAWPPAEKLEHHHHHH", "protein production": "failed"},
      {"sequence": "MPFIYRRRVQFYETDAQGIVHHSNYFRYFEEARGEFLRSKGFPYSKMRDMGLEVVLLNAYCEYKKPLFYDDVFEVHLNLEELSRFTFTFSYIVFKEDIAVAKANTKHCMVKNGKIVSIPKEVLEVLKD", "protein production": "not failed"},
      {"sequence": "MPFNQNVSLECYNGILSMLLNGAPLADILHALVLKIEDQRLGTHASVLLLSEDGKRVLTGAAPHLPDSYNQVIHGVEIGPEVGSCGTAAYTGQRVIVEDIEHHPYWALYKSFALVHGLRACWSEPIKDTQGKVLGTFAMYYKEIKSPTVADLTLIAEAARLASLAIERSRSLEFQRLEHHHHHH", "protein production": "not failed"},
      {"sequence": "MPFWLEVVINVAFSYLASVGFALTINVPHRALNLSGISGTVGWMAYWFCFRLGAGRMASNLIGAFLIGILGLVFARIKKCPVTVFNIPALVPLVPGMPAYQAVRAFVVGDYIQGQELILRVAIVTGAIGLGFLLSTMCTEAFYKIRYRHFRNTGLYFKRKK", "protein production": "failed"},
      {"sequence": "MPGFKSDLLIKRMDNEMETWILPTIPAFESTAEIAKIYRVRHQEAIEKSSDIYHFSGFIQEQIVCSLTLTVMGDCARIDDVATFPKYQKNGYATQLILSELQILKDTNISWCFLEASADGLNIYKKIG", "protein production": "not failed"},
      {"sequence": "MPGTVGVLSGARSLLLSMVASVTAAGGNAAIVGQPDIGLLAAVEMGADLSRLAMIPDPGTDPVEVAAVLIDGMDLVVLGLGGRRVTRARARAVVARARQKGCTLLVTDGDWQGVSTRLAARVCGYEITPALRGVPTPGLGRISGVRLQINGRGRLEHHHHHH", "protein production": "failed"},
      {"sequence": "MPGTVSPAPSLQSTTARICPSIRRPTMSRFGALRLPLAVCLAVLLTIASGPARAQPADAPLDEADYGQWERLGGATLSPEGTWMATPIRRVNGNHELRIHHTRRDTTRTVAFGRSPAFSADGQWLAYSIGMSEERRKKRRKQEKPVRRRLGLLNLATGDTTVVPAVSGFAFSDGGRYLAMRRYPPQEAPDDLRGADLLVRDLEAETYTSFGNVADMAWQHEAPHLALTIDGRTETGNGVRLYDAATGRLQTLASTPGDYTGLSWRPAEDDLAALRARDSDDWQHETHVVLAWTGVNDGAPERRQFDPATAGAFPDSLRIVDHRTPAWATERERLFFGVQKREAVAPDTAQADSAAADSLEDYGPAGVKVWHTSDVEIIPRQEVQAEQDREDNYLTAWHLGRSGEAHWTRLGTELTEDVQVLHGGARAVGLDQTPYREERMFGPVYHDLYAIDVATGEREQVAEKVQFFEGPSANGRYLLWLKNDQYHAYDLQQETTNTITADVPVPVVDVDDDHTVEQKPPFGIAGWTAGDRSVLVYSEYDVWRIAPDGSSTERLTTGRADSVRHRYVDLTDEAPGEADVIPRNEPIYWDLYDEWTEEHGYARASALTDTPERMVWKPKMMTGLTKADSADVYAYRVEDFEDSPDYFRAGPQLADARQVTSTNPFQDDYAWGRSDLVAFRNANGKKLQGALFYPADYDPDKTYPMITYIYETRSPQARSYVVPTREHPYNTTTFTQEGYIVFQPDITYRPRDPGNSAVDAIVPGVQAAAEAAAVDTSRIGLVGHSWGGYQTTFTATQTDLFATAVAGAPLTNMVSMYNSIYWRSGGTDARIFEISQGRMGVPPWEDMDAYVANSPLHHIESLNTPFLMAFGTDDGAVEFNQGVEFYNAARRADKELAFLVYDGENHGISRKEKNTVDYRNRVLEWFDHYLKGDEGPAWIQDGVPFLEQVERQEEAAVSR", "protein production": "failed"},
      {"sequence": "MPHFTKRPAQPQAALAEAAGLRWLAEASSAVAQVVSADAEQITTVGVETQLPTPDAAFKAGEELARIHLAGAPAFGCPPAGWAGLNYIGTQGQACLSTPTWGVFYSQQRVLPFARRARRRNHLTEHALWVVEAACDLISELPDDVPPARIHGDLWFGNLLFGTDGPVFIDPAAHGGHPETDLAMLDVFGAPYLDEIREGYLSINPLPDGWRERTPMHQLHPLAVHAASHGPSYGVELLHAAKATLKLLDLEHHHHHH", "protein production": "failed"},
      {"sequence": "MPHLRTILPQLRNNWFFIALLTSCGLWCFFAPSLLGALLFSITVIRIVCTKSFPVILGGFLCSFLIVGGILIFQWLKPVSLLPKEVRLSGQLTILPDEIQVDGDQVKFPANWIVKGKRQKVMAFYQLKSVKEKQQWQQLTTTIQATAVGILDSPQGQTNKNGFNYQLFLKNQGIEAILFIEEIGQPRSFFSWRFKEIISGWRKWAMVHIQKNFAETSAMYMNALLLGFRNEEFAEISDKFSALGILHLFSLSGMHVSFFLRLFRLLMLRIARRTQESYFLWQCGFSLIYAGLTGFSVSVMRALLQTNLNTFNRRFNWQVPALDCWSLTLLVHLIVQPTLFFSVGGQFSYLLSFVLLFLEQTLVGYSSPFIKNCLGSFLLAVASLPILVQSFYEWPLLGSFLTFLLLPIFERFLLPLLTLSFFLVIIMPARYLAALLEPLFLTMNGLFEWVLVHLNPKLTIGYLNSWIQISLLLLIGFSMIYLADKSKKIFFSIGLLIVLINSKYLSPIGIVAMIDVGQGDSLFIQAPFHRKNTLIDTGGRLSFGKEAWRQRKNSRSGAEYSVIPFLKSQGVKRLDEVIITHAHEDHFGDLLAIAQKVPISVLYFPKGAAEANFSFRQVLKQLQKSGTDCRPILAPKRINGPVSFQILSPNKSSIGGNNDSIVFSTQLGGRHFLFTGDLEAEGEEQVLARYPQLKIDILKVGHHGSKTSSTKRFIKQLNPREALISAGLNNRFKHPHQETLATLEEQKINYYRTDLQGMIYYQWLPWQGLSKAKFVKEQD", "protein production": "failed"},
      {"sequence": "MPHPAERSRHGRGWFEKLAEAASNLTSSPVFYCFCLLLVFAFIVAHAVGLELTWQLLIGDIMTAVNLLLLALLKNSERRAEHAIQHKLDSIAAALLEQREGHSRQAHEELRKAIGIEDEF", "protein production": "failed"},
      {"sequence": "MPHPATMFFLFTLAVIFLSWIFDIYGLRVQLPQTGAEIRVQSLLSPEGIRWMLRNAITNFTGFAPLGMVLIAMFGIGVAQHSGFIDACVRQGVKNRKNTKRIILWVIILGLLSNIVGDAGYIILLPIAATLFYSVGLNPVAGIITAYVSVSCGYSANVVLSTMDPLIARTTQEAAIDSGVYQGNTGPLCNYYFMSVSTFVIGAIIYRITCKRLIPSLGQYEGKQIFEGYKQLSRKERRAMTMAIVMGMLYAAIILWATFSSWGILRGVNGGLIRSPFIMGILFLLSLGAAIMGMVYGFSSGRYRSDNDVIEGLAQPMKLLGGYLVIAFFAAQMFACLEYSHLDKCVAIIGANLLSSVQADPLWTLILFILFTATINLIMVSATAKWAFMAFIFVPVFARMGIEPDMTQCAFRIGDSATNAITPFMFYMPLVLTYMQQYDKQATYGSLLKYTWRYSVYILIGWTMLLFIWYLTGLPLGL", "protein production": "failed"},
      {"sequence": "MPHSSTNITKAVLQGRGLYPISLVTGAMFTEEMYVVLESTTRAETFLTPMELQAKLMEYLTGTEVSLSPDLLALPDVESRAQYLMTTACELQLANGGYLQWYAVRLEKLEHHHHHH", "protein production": "not failed"}
    ]}
  ]
}
